Among the data in patent US20250092426, “CAS ENDONUCLEASES AND RELATED METHODS” (Flagship Pioneering Innovations VII, LLC, published 2025) are activity values, retold here.

The target of the series is T1, CasEnd-37 (synthetic construct).
T1 chain: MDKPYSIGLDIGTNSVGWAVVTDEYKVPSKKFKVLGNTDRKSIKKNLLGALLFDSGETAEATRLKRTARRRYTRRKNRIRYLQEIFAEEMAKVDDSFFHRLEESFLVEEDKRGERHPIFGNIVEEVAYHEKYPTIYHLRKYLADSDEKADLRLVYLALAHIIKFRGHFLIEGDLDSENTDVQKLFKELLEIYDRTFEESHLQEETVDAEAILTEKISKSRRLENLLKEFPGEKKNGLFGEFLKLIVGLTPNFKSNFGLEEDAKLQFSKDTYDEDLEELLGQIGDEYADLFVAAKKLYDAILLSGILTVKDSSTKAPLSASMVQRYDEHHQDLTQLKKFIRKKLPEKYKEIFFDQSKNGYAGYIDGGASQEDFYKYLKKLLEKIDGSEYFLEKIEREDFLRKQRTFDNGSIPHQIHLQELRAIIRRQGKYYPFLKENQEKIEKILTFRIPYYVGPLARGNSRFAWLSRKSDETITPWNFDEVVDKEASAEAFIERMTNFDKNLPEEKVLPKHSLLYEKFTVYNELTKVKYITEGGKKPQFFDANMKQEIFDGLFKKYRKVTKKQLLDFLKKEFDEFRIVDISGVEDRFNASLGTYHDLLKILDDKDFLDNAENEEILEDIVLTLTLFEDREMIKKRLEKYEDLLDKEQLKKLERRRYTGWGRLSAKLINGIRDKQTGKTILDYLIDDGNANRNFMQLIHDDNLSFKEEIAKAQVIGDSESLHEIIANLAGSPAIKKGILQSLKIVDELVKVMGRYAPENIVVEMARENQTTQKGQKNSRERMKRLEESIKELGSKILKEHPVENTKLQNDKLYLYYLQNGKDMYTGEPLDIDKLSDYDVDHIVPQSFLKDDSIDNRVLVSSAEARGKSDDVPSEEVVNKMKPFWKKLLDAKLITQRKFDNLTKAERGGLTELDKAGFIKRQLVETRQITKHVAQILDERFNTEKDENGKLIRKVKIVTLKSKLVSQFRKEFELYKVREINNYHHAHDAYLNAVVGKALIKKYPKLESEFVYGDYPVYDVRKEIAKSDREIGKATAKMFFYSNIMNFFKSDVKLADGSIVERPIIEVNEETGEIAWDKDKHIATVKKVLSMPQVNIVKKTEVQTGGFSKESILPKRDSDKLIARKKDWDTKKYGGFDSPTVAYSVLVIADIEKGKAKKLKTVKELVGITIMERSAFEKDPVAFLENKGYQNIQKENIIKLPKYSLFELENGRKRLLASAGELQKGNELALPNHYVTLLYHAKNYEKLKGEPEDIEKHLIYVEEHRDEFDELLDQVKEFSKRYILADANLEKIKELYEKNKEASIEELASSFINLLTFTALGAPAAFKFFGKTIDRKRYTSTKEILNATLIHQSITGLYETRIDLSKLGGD
The series is described as follows: cell_activity; +++; HEK293T; PAM not stated. In short, it runs like this:
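Editing activity was scored as the fraction of GFP+ cells on day 4 by flow cytometry. BFP-expressing HEK293T cells (250,000) received by nucleofection 200 ng plasmid for the RT-Cas fusion protein and 200 ng template RNA plasmid designed to convert BFP to GFP.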

B1: BFP-to-GFP template RNA ; BFP reporter protospacer (ssRNA ; dsDNA)
RNA: GCCGAAGCACUGCACGCCGUGUUUUAGAGCUAGAAAUAGCAAGUUAAAAUAAGGCUAGUCCGUUAUCAACUUGAAAAAGUGGCACCGAGUCGGUGCACCCUGACGUACGGCGUGCAGUGCUU
DNA 1: GCCGAAGCACTGCACGCCGT
DNA 2: ACGGCGTGCAGTGCTTCGGC
For B1, the activity is ≥ 100 % of reference.
